# Experimental data published in patent publication US20250257142A1 (INVETX, published 2025).
# B1: 109-49 heavy chain M118I variant with wild-type light chain (antibody, V domains shown)
# VH: EVQLVESGGDLVKPGGSLRLSCVASGFTFDDYGMSWVRQAPGKGLQWVSGINWAGGTIGYADAVKGRFTISRDNARNTVYLQMNSLRAEDTAVYYCARESPLRLGDLGGDYFYYYYYIDVWGQGTLVTVSS
# VL: EVVMIQTPLSLSVSPGEPASISCRASQSVSSRYLVWYLQKPGQSPQLLIYGTSSRATGVSDRFSGSGSGTDFTLRISRVEAEDVGVYYCQQYDNSPRTFGQGTKVEIKR
# notes: Canine IgGB/kappa; signal peptides left out; also called M118I / Wild-type
# B2: 109-49 heavy chain W53F variant with wild-type light chain (antibody, V domains shown)
# VH: EVQLVESGGDLVKPGGSLRLSCVASGFTFDDYGMSWVRQAPGKGLQWVSGINFAGGTIGYADAVKGRFTISRDNARNTVYLQMNSLRAEDTAVYYCARESPLRLGDLGGDYFYYYYYMDVWGQGTLVTVSS
# VL: EVVMIQTPLSLSVSPGEPASISCRASQSVSSRYLVWYLQKPGQSPQLLIYGTSSRATGVSDRFSGSGSGTDFTLRISRVEAEDVGVYYCQQYDNSPRTFGQGTKVEIKR
# notes: Canine IgGB/kappa; signal peptides left out; also called W53F / Wild-type
# B3: caninized antibody clone 109-49 (antibody, V domains shown)
# VH: EVQLVESGGDLVKPGGSLRLSCVASGFTFDDYGMSWVRQAPGKGLQWVSGINWAGGTIGYADAVKGRFTISRDNARNTVYLQMNSLRAEDTAVYYCARESPLRLGDLGGDYFYYYYYMDVWGQGTLVTVSS
# VL: EVVMIQTPLSLSVSPGEPASISCRASQSVSSRYLVWYLQKPGQSPQLLIYGTSSRATGVSDRFSGSGSGTDFTLRISRVEAEDVGVYYCQQYDNSPRTFGQGTKVEIKR
# notes: Canine IgGB and canine kappa constant domains
# B4: 109-49 wild-type heavy chain with light chain N94Q variant (antibody, V domains shown)
# VH: EVQLVESGGDLVKPGGSLRLSCVASGFTFDDYGMSWVRQAPGKGLQWVSGINWAGGTIGYADAVKGRFTISRDNARNTVYLQMNSLRAEDTAVYYCARESPLRLGDLGGDYFYYYYYMDVWGQGTLVTVSS
# VL: EVVMIQTPLSLSVSPGEPASISCRASQSVSSRYLVWYLQKPGQSPQLLIYGTSSRATGVSDRFSGSGSGTDFTLRISRVEAEDVGVYYCQQYDQSPRTFGQGTKVEIKR
# notes: Canine IgGB/kappa; signal peptides left out; also called Wild-type / N94Q
# B5: 109-49 wild-type heavy chain with light chain S95A variant (antibody, V domains shown)
# VH: EVQLVESGGDLVKPGGSLRLSCVASGFTFDDYGMSWVRQAPGKGLQWVSGINWAGGTIGYADAVKGRFTISRDNARNTVYLQMNSLRAEDTAVYYCARESPLRLGDLGGDYFYYYYYMDVWGQGTLVTVSS
# VL: EVVMIQTPLSLSVSPGEPASISCRASQSVSSRYLVWYLQKPGQSPQLLIYGTSSRATGVSDRFSGSGSGTDFTLRISRVEAEDVGVYYCQQYDNAPRTFGQGTKVEIKR
# notes: Canine IgGB/kappa; signal peptides left out; also called Wild-type / S95A
# B6: 109-49 heavy chain W53Y variant with wild-type light chain (antibody, V domains shown)
# VH: EVQLVESGGDLVKPGGSLRLSCVASGFTFDDYGMSWVRQAPGKGLQWVSGINYAGGTIGYADAVKGRFTISRDNARNTVYLQMNSLRAEDTAVYYCARESPLRLGDLGGDYFYYYYYMDVWGQGTLVTVSS
# VL: EVVMIQTPLSLSVSPGEPASISCRASQSVSSRYLVWYLQKPGQSPQLLIYGTSSRATGVSDRFSGSGSGTDFTLRISRVEAEDVGVYYCQQYDNSPRTFGQGTKVEIKR
# notes: Canine IgGB/kappa; signal peptides left out; also called W53Y / Wild-type
# B7: 109-49 heavy chain M118I variant with light chain N94Q variant (antibody, V domains shown)
# VH: EVQLVESGGDLVKPGGSLRLSCVASGFTFDDYGMSWVRQAPGKGLQWVSGINWAGGTIGYADAVKGRFTISRDNARNTVYLQMNSLRAEDTAVYYCARESPLRLGDLGGDYFYYYYYIDVWGQGTLVTVSS
# VL: EVVMIQTPLSLSVSPGEPASISCRASQSVSSRYLVWYLQKPGQSPQLLIYGTSSRATGVSDRFSGSGSGTDFTLRISRVEAEDVGVYYCQQYDQSPRTFGQGTKVEIKR
# notes: Canine IgGB/kappa; signal peptides left out; also called M118I / N94Q
# B8: 109-49 heavy chain W53F + M118I variant with light chain N94Q variant (antibody, V domains shown)
# VH: EVQLVESGGDLVKPGGSLRLSCVASGFTFDDYGMSWVRQAPGKGLQWVSGINFAGGTIGYADAVKGRFTISRDNARNTVYLQMNSLRAEDTAVYYCARESPLRLGDLGGDYFYYYYYIDVWGQGTLVTVSS
# VL: EVVMIQTPLSLSVSPGEPASISCRASQSVSSRYLVWYLQKPGQSPQLLIYGTSSRATGVSDRFSGSGSGTDFTLRISRVEAEDVGVYYCQQYDQSPRTFGQGTKVEIKR
# notes: Canine IgGB/kappa; signal peptides left out; also called W53F-M118I / N94Q
# B9: 109-49 heavy chain M118L variant with wild-type light chain (antibody, V domains shown)
# VH: EVQLVESGGDLVKPGGSLRLSCVASGFTFDDYGMSWVRQAPGKGLQWVSGINWAGGTIGYADAVKGRFTISRDNARNTVYLQMNSLRAEDTAVYYCARESPLRLGDLGGDYFYYYYYLDVWGQGTLVTVSS
# VL: EVVMIQTPLSLSVSPGEPASISCRASQSVSSRYLVWYLQKPGQSPQLLIYGTSSRATGVSDRFSGSGSGTDFTLRISRVEAEDVGVYYCQQYDNSPRTFGQGTKVEIKR
# notes: Canine IgGB/kappa; signal peptides left out; also called M118L / Wild-type
# B10: 109-49 heavy chain W53F + M118I variant with light chain S95A variant (antibody, V domains shown)
# VH: EVQLVESGGDLVKPGGSLRLSCVASGFTFDDYGMSWVRQAPGKGLQWVSGINFAGGTIGYADAVKGRFTISRDNARNTVYLQMNSLRAEDTAVYYCARESPLRLGDLGGDYFYYYYYIDVWGQGTLVTVSS
# VL: EVVMIQTPLSLSVSPGEPASISCRASQSVSSRYLVWYLQKPGQSPQLLIYGTSSRATGVSDRFSGSGSGTDFTLRISRVEAEDVGVYYCQQYDNAPRTFGQGTKVEIKR
# notes: Canine IgGB/kappa; signal peptides left out; also called W53F-M118I / S95A
# B11: 186-95 heavy chain M106L variant with wild-type light chain (antibody, V domains shown)
# VH: EVQLVESGGDLVKPGGSLRLSCVASGFTFSSYAMSWVRQAPGKGLQWVSAISGSGNSTYYADAVKGRFTISRDNAKNTLYLQMNSLRAEDTAVYYCATQVVYYFKLDVWGQGTLVTVSS
# VL: EIVMTQSPGSLAGSAGESVSINCKSSQSVSSNLAWYQQKPGERPKLLIYGASTRASGVPARFSSSGSGTDFTLTINNLQAEDVGDYYCQQYYNWPPFTFGQGTKLEIKR
# notes: Canine IgGB/kappa; signal peptides left out; also called M106L / Wild-type
# B12: 186-95 heavy chain N56Q + M106L variant with light chain W94Y variant (antibody, V domains shown)
# VH: EVQLVESGGDLVKPGGSLRLSCVASGFTFSSYAMSWVRQAPGKGLQWVSAISGSGQSTYYADAVKGRFTISRDNAKNTLYLQMNSLRAEDTAVYYCATQVVYYFKLDVWGQGTLVTVSS
# VL: EIVMTQSPGSLAGSAGESVSINCKSSQSVSSNLAWYQQKPGERPKLLIYGASTRASGVPARFSSSGSGTDFTLTINNLQAEDVGDYYCQQYYNYPPFTFGQGTKLEIKR
# notes: Canine IgGB/kappa; signal peptides left out; also called N56Q-M106L / W94Y
# B13: 186-95 heavy chain M106I variant with wild-type light chain (antibody, V domains shown)
# VH: EVQLVESGGDLVKPGGSLRLSCVASGFTFSSYAMSWVRQAPGKGLQWVSAISGSGNSTYYADAVKGRFTISRDNAKNTLYLQMNSLRAEDTAVYYCATQVVYYFKIDVWGQGTLVTVSS
# VL: EIVMTQSPGSLAGSAGESVSINCKSSQSVSSNLAWYQQKPGERPKLLIYGASTRASGVPARFSSSGSGTDFTLTINNLQAEDVGDYYCQQYYNWPPFTFGQGTKLEIKR
# notes: Canine IgGB/kappa; signal peptides left out; also called M106I / Wild-type
# B14: 186-95 heavy chain N56Q variant with wild-type light chain (antibody, V domains shown)
# VH: EVQLVESGGDLVKPGGSLRLSCVASGFTFSSYAMSWVRQAPGKGLQWVSAISGSGQSTYYADAVKGRFTISRDNAKNTLYLQMNSLRAEDTAVYYCATQVVYYFKMDVWGQGTLVTVSS
# VL: EIVMTQSPGSLAGSAGESVSINCKSSQSVSSNLAWYQQKPGERPKLLIYGASTRASGVPARFSSSGSGTDFTLTINNLQAEDVGDYYCQQYYNWPPFTFGQGTKLEIKR
# notes: Canine IgGB/kappa; signal peptides left out; also called N56Q / Wild-type
# Target: T1, extracellular domain of canine IL-31RA fused to murine IgG2A Fc (canine)
# T1 construct: also called Canine IL-31RA-murine IgG2A Fc; Canine IL-31RA-mFc
# T1 chain: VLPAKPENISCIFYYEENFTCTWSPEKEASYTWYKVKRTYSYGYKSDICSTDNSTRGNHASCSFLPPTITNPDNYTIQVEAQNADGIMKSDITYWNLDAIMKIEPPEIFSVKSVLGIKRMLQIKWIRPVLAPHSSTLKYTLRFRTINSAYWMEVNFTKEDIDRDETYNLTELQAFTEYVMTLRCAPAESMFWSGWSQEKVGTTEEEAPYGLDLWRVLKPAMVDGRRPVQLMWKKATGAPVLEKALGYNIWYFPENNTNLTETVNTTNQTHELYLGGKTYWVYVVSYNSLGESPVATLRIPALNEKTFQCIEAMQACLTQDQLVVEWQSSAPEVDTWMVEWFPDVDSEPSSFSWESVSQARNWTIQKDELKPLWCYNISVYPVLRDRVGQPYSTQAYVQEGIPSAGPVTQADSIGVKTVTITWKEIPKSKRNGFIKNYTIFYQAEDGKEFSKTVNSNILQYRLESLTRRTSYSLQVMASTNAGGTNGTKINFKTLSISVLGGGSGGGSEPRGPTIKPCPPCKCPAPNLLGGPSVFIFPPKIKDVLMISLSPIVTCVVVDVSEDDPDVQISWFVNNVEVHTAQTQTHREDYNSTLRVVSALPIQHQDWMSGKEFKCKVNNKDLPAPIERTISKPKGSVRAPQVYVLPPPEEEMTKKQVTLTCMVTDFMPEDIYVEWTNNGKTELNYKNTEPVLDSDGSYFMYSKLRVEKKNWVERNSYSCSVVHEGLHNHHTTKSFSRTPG
# Experiment: SPR Biacore T200, antibody captured on anti-dog H+L chip, canine IL-31RA-mFc as analyte; relative affinity scale: *** 3 pM-100 pM, ** 101 pM-1 nM, * 1.1 nM-20 nM (avidity)
# Description: (§1) The different heavy and light chain combinations were co-transfected into ExpiCHO cells using the ExpiCHO transfection kit (ThermoFisher; Cat. #A29133). Seven days following the transient transfection, the IgG in the conditioned medium was purified using MabSelect SuRe chromatography. The antibodies were buffer-exchanged into PBS, pH 7.4. The relative affinity of the variants was determined by SPR on a Biacore T200. The antibody was captured using a CM5 Series S chip amine coupled with an anti-dog H+L antibody (Jackson Immunoresearch). Canine IL-31RA-mFc (100 nM, 50 nM, 25 nM, 12.5 nM, 6.25 nM, 3.625 nM) solutions in 1×HBS-EP+ was flown over the sensor chip for a contact time of 120 s and a dissociation time of 600 s at a flow rate of […]. Double reference-subtracted sensorgrams were fitted to a 1:1 binding model using Biacore T200 Evaluation software. The canine IL-31RA antigen was both a dimer and aggregated so there were avidity effects with the measured affinities. […] Following the initial results with the single variants, a heavy chain containing the W53F variant and the M118I variant was synthesized and subcloned into pcDNA 3.4 (SEQ ID NO:18). The same methods as described above for expression and purification of the variant along with measuring the relative affinity were used to determine the relative affinity of the W53F/M118I heavy chain variant combined with the S95A light chain and the N94Q light chain variants.
row,Binder,relative affinity (apparent KD by SPR)
1,B1,0.003 to 0.1 nM
2,B2,1.1 to 20 nM
3,B3,0.003 to 0.1 nM
4,B4,0.101 to 1 nM
5,B5,0.003 to 0.1 nM
6,B6,1.1 to 20 nM
7,B7,0.003 to 0.1 nM
8,B8,1.1 to 20 nM
9,B9,1.1 to 20 nM
10,B10,1.1 to 20 nM

# Target: T1, extracellular domain of canine IL-31RA …
# Experiment: as above
# Remark: another data set of the same source
# Description: as §1, with “Seven” for “The different heavy and light chain combinations were co-transfected into ExpiCHO cells using the ExpiCHO transfection kit (ThermoFisher; Cat. #A29133). Seven”
row,Binder,binding result
1,B11,binds
2,B12,binds
3,B13,binds
4,B14,binds
